In the DeepSol protein solubility set:

Assay: soluble on expression in E. coli; label from the status in PepcDB or PDB records

Sequence | soluble on expression in E. coli
ADVTITVNGKVVAKPCTVSTTNATVDLGDLYSFSLMSAGAASAWHDVALELTNCPVGTSRVTASFSGAADSTGYYKNQGTAQNIQLELQDDSGNTLNTGATKTVQVDDSSQSAHFPLQVRALTVNGGATQGTIQAVISITYTYS | soluble
MFSPSKFRKQVNESESVSNCESTTSNSRRILDQHAGLPISSAFRTEASDIGHHFSTKMYFKILSPNNVFALMGDNEFKTSFKIFTIFEPTSTPNGKIQSLITISYKINNVLFKMEKEIFIEKVNIFSLELHIFNFQSTNRSNPASESIHQLDLSSEALVTSTLNIRGNKITTTLRPRTSPYKRAGDASMSREDLRSPDSVSTFTTVLHVFHKVFQVAATYTIRENRSERQTKVKLESLERRLKANEKARKEIEAEAEKWKDRATRNSKRLPELELELAETVQAKEEWQVKSQEMEIQNKQLVEELNEVQKKLEEIENSQKTFHQKVVSTLNLDEEYFQNPDEEQDGSLSQFNMDVLEQEIVKYQEKCISLKQENEILKEKLQQLSSSLTVNQNHVSTLMDHLEINKEQSREIQGICKKEIAIRQDHENRINHDVTLLNSLINEQKMELEMLKAEIRCLRSYSQEMSQSNKNNIILLKSAETERKSLLETLTVLLNSEEEATENNVKRTIRDLVRERDTEQTKRFEAEKAASNAEGVLLEQAKQQRNALFRARVSEEEYSKSMEKIEELEQELLASDLERKNLEHKIASLENCISKVSQLLNVNVGGVFDAIFDRIEELIAQESVYRVVVNENRLISENIFRGLQSVRKDFQSGKSGGGSDKKQPASPVAAAAKIIQERHTLKTIDKMDKLNKDLLATMTIETLKAADIEKTNLKKRMNEQDARIRQLEREKKEGERIRSIIAKWEKRNIPKTEKSSPMKKVPPIENFRAKSQTSITGLSPVL | not soluble
MTVAQLIDIDAKKTKTSNEVYQTSTMLALLDGIYDGVISFEDLKKHGDFGIGTFDQLDGEMIAFDNEFYHLRSDGSAEKVEPEETTPFATVTFFEKEMSYTVERPMNREEVEALLHELMPSKNLFYGIRMDGTFREVRTRTVPRQEKPYTPLVEVTKSQPIFSFENTEGTLAGFWTPDYAQGIGVAGFHLHYIDDERSGGGHVFDYVIENCTIQICQKAHMHLALPETADFMAAALSRENLEDNIATAEGAE | not soluble
MGSDKIHHHHHHMPANDFVSPDSIRAQFSAAMSLMYKQEVPLYGTLLELVSEINQQVMAQQPEVAEALRWTGEIERLDQERHGAIRVGTAEELATIARLFAVMGMQPVGYYDLSSAGVPVHSTAFRAVHEQSLHVSPFRVFTSLLRLELIDNPQLRELAQSILAKRQIFTSRALELIAQCEREGGLDAADAETFVQEALHTFRWHQDATVTAEQYQQLHDQHRLIADVVAFKGPHINHLTPRTLDIDAIQLGMPAKGIPPKAVVEGPPTRRHPILLRQTSFKALQETVAFRDQQGREGSHTARFGEIEQRGAALTPKGRQLYDKLLDATRVALGGAPAEANAERYMALLQANFAEFPDDLAQMREQGLAYFRYFATEKGLAARDQEGRPTTLQGLIDAGHVHFEALVYEDFLPVSAAGIFQSNLGDDAQAEYGSNANREAFEAALGLQVQDELALYAQSERRSLQACAQALNLGSM | not soluble
AGFKPAPPAGQLGAVIVDPYGNAPLTALVDLDSHVISDVKVTVHGKGEKGVEISYPVGQESLKTYDGVPIFGLYQKFANKVTVEWKENGKVMKDDYVVHTSAIVNNYMDNRSISDLQQTKVIKVAPGFEDRLYLVNTHTFTAQGSDLHWHGEKDKNAGILDAGPATGALPFDIAPFTFIVDTEGEYRWWLDQDTFYDGRDRDINKRGYLMGIRETPRGTFTAVQGQHWYEFDMMGQVLEDHKLPRGFADATHESIETPNGTVLLRVGKSNYRRDDGVHVTTIRDHILEVDKSGRVVDVWDLTKILDPKRDALLGALDAGAVCVNVDLAHAGQQAKLEPDTPFGDALGVGPGRNWAHVNSIAYDAKDDSIILSSRHQGVVKIGRDKQVKWILAPSKGWEKPLASKLLKPVDANGKPITCNENGLCENSDFDFTYTQHTAWISSKGTLTIFDNGDGRHLEQPALPTMKYSRFVEYKIDEKKGTVQQVWEYGKERGYDFYSPITSIIEYQADRNTMFGFGGSIHLFDVGQPTVGKLNEIDYKTKEVKVEIDVLSDKPNQTHYRALLVRPQQMFK | soluble
MKLRSWEFYDRIARAYDSMYETPKWKLYHRLIGSFLEEYLKNPCRVLDLGGGTGKWSLFLQERGFEVVLVDPSKEMLEVAREKGVKNVVEAKAEDLPFPSGAFEAVLALGDVLSYVENKDKAFSEIRRVLVPDGLLIATVDNFYTFLQQMIEKDAWDQITRFLKTQTTSVGTTLFSFNSYAFKPEDLDSLEGFETVDIRGIGVMEYPDERISEREETIFRLEQELSRDRNIIWKADHIFFVLKKKRGA | not soluble
MFDIGFGELLLVMVLGLIVLGPERLPVAVRTVASWIRTLRSLASTVQNELSQELKLQEFQESLKKVEKASLQNLSPELKASMDELKDAAEAMKRGYTETPSPQKSDDPKKSGDHSATVEPQSNIPLNDPEAAYDGVIEAETAVRPADSQQKPENAAVAENHNDGRHATSDEAVGNNNVKPEQSQPSAASARQPSDSRLEHHHHHH | not soluble
GPLGSMTGPSVHDRALGAFLGLAVGDALGATVEFMTKGEIAQQYGIHRKMTGGGWLRLKPGQITDDTEMSLALGRSLAAKGTLDVADICEEFALWLKSRPVDVGNTCRRGIRRYMHEGTTTAPYSEGDAGNGAAMRCLPAALATLGHPADLEPWVLAQARITHNHPLSDAACLTLGRMVHHLIGGRGMKACREEANRLVHQHRDFHFEPYKGQSSAYIVDTMQTVLHYYFVTDTFKSCLIQTVNQGGDADTTGALAGMLAGATYGVDDIPSGWLSKLDMKVEREIRRQVDALLALAGLD | soluble
MEALNKKLFRLNSKEKIQKSTGTFVPDLPNGSFLKENGSMELLNDYFFKNKDIYISKHNRFADYPYHTHQFLELNYMYSGSSEQVIEGNKETLHEGELLLLDSACHHSIKATGEKDILINILFRDQQISLEWLTSIKKKNSLLFDFLLHSSVSEQSLKKYIIFQSAQIPHIQQFLNQIITEYFLEEEFSSRIITLYLPILFTELVRKCDTYLADDLTSAQSSTTSTMLEVIKLIESNYRTITLTSAADTLGYNKNYLSNFIKKNTNFTFTELVNKQKMLAANLLIETTSTPIELIIEKVGFSNKTYFYSLYKKTFNLLPNEVRNKK | not soluble
MKRGKQTCKILKDIRRQIAEANDIEFITSECQYQGDCLGTCPKCEAEVRYLEQQLERKRMAGKAITILGISAGLVAMAPMTSCSSSPNKGTNQETISDSTNASVMFGEICPTPVEDTIPMVEKDTVNKQELPELPQEMGLIEITPISGDIITVKDSLSEKDSLTDVLEVAAVMPEFPGGARELMKFISANIRYPSMSQGGVCQGRAIVQFIVDKEGNIVQPKVVRGVDPYLDKEALRVVGLMPKWKPGELDDGTKVAVRFTIPVMFRLQ | not soluble
MSLIHSMTAFSRIQKQFDVGDFCWEIRSVNHRYLDVSFRLPESFRFLEAELRTLLRDKIHRGKLECHLKYKDTSCDNRSMLINIGTINALLDLSSKLSASHHLANDMTVSQVLSWPGVVEASLLDMEELSQIALELFQKSIDKLCEVRAGEGRSLKAYVEDRLQALRQEVMKSKSIVVSMSAKTKDKLLTRLHELQMDVPEARVEQEIALLLAKLDVSEELDRLETHIAEVSRTLNAEKVTGRRLDFLMQELNREANTLSSKSDSAELTLCAVEMKVLIEQMREQIQNFEEGHHHHHH | soluble
MSLNTGHASLAQWGMSCLQWQPEWSVLDIGCGGGANLLQILQRCPQGKAYGIDISPESVTFARKKNKKYLGTRCFIEQGGVHRLPYPDYAFDAVTAFETVYFWGNLQHAFTEVARVLKPGGSFLICCEISDPANKAWTGLVEGMEIHSCDELKAILSKSGFTDTAIFRTKKEELCLVSHRQTVRLEGHHHHHH | soluble
MNSIWARLRLASSQLPIGGYSYSQGLEAALDNGWVRDAESARTWLVDQLQLNLARFEAPLLAGLLRAALIGDWAACDAASERHRASRETRELAQESRQMGFSLHQLLEALPELDAPGRAWLARQDPPNLAAAWAMAARAWRLDAEEALSAWFWSWLENQLAVLMKTLPLGQLAAQKLASSLLPELDRACAEALRRPAVEGSAAFGLALASMTHETQYSRLFRSLEHHHHHH | not soluble
MSLIGEILPLSHIVLDMEVGSKKRLFEEAGLLLERESSLSHADVFECLFAREKLGSTGLGQGVAIPHGRHAGVKQATGAFIRTREPVGFDAPDGKPVSLIFILLVPENATGEHLEVLSKLAGKFSQKSIRESLMTVSSAEEVRAILTEE | soluble
